Data from paper PMC12796746, “Profiling the TRPV4 ankyrin repeat domain interactome and its disruption by neuromuscular disease-causing mutations” (The Journal of Biological Chemistry, 2025).

Target: T1, TRPV4^WT-ARD (amino acids 149-397) (human, UniProt Q9HBA0 149-397)
T1 construct: TRPV4, human, ankyrin repeat domain, amino acids 149-397; source: E. coli BL21(DE3), purified; not shown: His6, C-terminal, kept; V5, C-terminal, kept
Assay: peptide or protein array; HuProt Human Proteome Microarray v2.0, full-length human proteins spotted in duplicate; V5-tagged TRPV4 protein in solution at 1 μM, 1 h at 4 °C, 150 mM NaCl, 2.7 mM KCl, 25 mM Trizma base, 0.05% Tween-20, pH 7.4; detected with Alexa Fluor 647 anti-V5; hit: z-score >= 2 (N terminus: both of 2 slides; ARD constructs: at least 2 of 3 slides)
Conditions: both partners purified

binding result | Binder
binds | 3-hydroxybutyrate dehydrogenase type 2 (natural protein, human, UniProt Q9BUT1 1-245, looked up, human, spotted on the HuProt array; also called BDH2; source: bought: CDI Laboratories (HuProt v2.0 microarray)) MGRLDGKVIILTAAAQGIGQAAALAFAREGAKVIATDINESKLQELEKYPGIQTRVLDVTKKKQIDQFANEVERLDVLFNVAGFVHHGTVLDCEEKDWDFSMNLNVRSMYLMIKAFLPKMLAQKSGNIINMSSVASSVKGVVNRCVYSTTKAAVIGLTKSVAADFIQQGIRCNCVCPGTVDTPSLQERIQARGNPEEARNDFLKRQKTGRFATAEEIAMLCVYLASDESAYVTGNPVIIDGGWSL
binds | Uncharacterized protein C6orf141 (natural protein, human, UniProt Q5SZD1 1-244, looked up, human, spotted on the HuProt array; source: bought: CDI Laboratories (HuProt v2.0 microarray)) MNDPFARMETRGPQGAANPMDSSRSLGDLGPFPREVGRGAPLAPGARNPATAGASRSQGGGHEDRTADRALGPRAGEELDRESWVREKVLFLLHPERWLGTRGDPAREEVAGAEDLPHAGGEDHGEEPNYPSVFQRQKRISGRRVAPPRDAADPPKYVLVRVEDYQVTQEVLQTSWAKGRMTTRTEEHFVTALTFRSSREGQPGERWGPAESRALQARTGASRVHAAGRRVSPSPGTWLEEIKL
binds | ADP-ribosylation factor-like protein 10 (natural protein, human, UniProt Q8N8L6 1-244, looked up, human, spotted on the HuProt array; also called ARL10; source: bought: CDI Laboratories (HuProt v2.0 microarray)) MAPRPLGPLVLALGGAAAVLGSVLFILWKTYFGRGRERRWDRGEAWWGAEAARLPEWDEWDPEDEEDEEPALEELEQREVLVLGLDGAGKSTFLRVLSGKPPLEGHIPTWGFNSVRLPTKDFEVDLLEIGGSQNLRFYWKEFVSEVDVLVFVVDSADRLRLPWARQELHKLLDKDPDLPVVVVANKQDLSEAMSMGELQRELGLQAIDNQREVFLLAASIAPAGPTFEEPGTVHIWKLLLELLS
binds | Cysteine-rich DPF motif domain-containing protein 1 (natural protein, human, UniProt Q6NVV7 1-123, looked up, human, spotted on the HuProt array; also called CDPF1; source: bought: CDI Laboratories (HuProt v2.0 microarray)) MASHVECRPLGVFECELCTLTAPYSYVGQKPPNTQSMVLLEESYVMKDPFTSDKDRFLVLGSCCSLCSRLVCVGPECSLFYSKRFCLPCVRENINAFPQEIRQDLEKRKAPSKRTPSQPGSRT
binds | Deoxycytidylate deaminase (natural protein, human, UniProt P32321 1-178, looked up, human, spotted on the HuProt array; also called DCTD; source: bought: CDI Laboratories (HuProt v2.0 microarray)) MSEVSCKKRDDYLEWPEYFMAVAFLSAQRSKDPNSQVGACIVNSENKIVGIGYNGMPNGCSDDVLPWRRTAENKLDTKYPYVCHAELNAIMNKNSTDVKGCSMYVALFPCNECAKLIIQAGIKEVIFMSDKYHDSDEATAARLLFNMAGVTFRKFIPKCSKIVIDFDSINSRPSQKLQ
binds | Protein FAM104B (natural protein, human, UniProt Q5XKR9 1-115, looked up, human, spotted on the HuProt array; source: bought: CDI Laboratories (HuProt v2.0 microarray)) MGGCPVRKRRRNGSKEGNHHSTQPKRNKRNPIFQDSQDTEFSWSDNERSSSRINIPERASGPEGNLNQIVTEPDANFPQFLHEGLSKPVYVINWFMSFGPEIKLNTSQQGRNQAV
binds | 14-3-3 protein eta (natural protein, human, UniProt Q04917 1-246, looked up, human, spotted on the HuProt array; also called YWHAH; source: bought: CDI Laboratories (HuProt v2.0 microarray)) MGDREQLLQRARLAEQAERYDDMASAMKAVTELNEPLSNEDRNLLSVAYKNVVGARRSSWRVISSIEQKTMADGNEKKLEKVKAYREKIEKELETVCNDVLSLLDKFLIKNCNDFQYESKVFYLKMKGDYYRYLAEVASGEKKNSVVEASEAAYKEAFEISKEQMQPTHPIRLGLALNFSVFYYEIQNAPEQACLLAKQAFDDAIAELDTLNEDSYKDSTLIMQLLRDNLTLWTSDQQDEEAGEGN
binds | Ras-related protein Rab-7L1 (natural protein, human, UniProt O14966 1-203, looked up, human, spotted on the HuProt array; also called RAB29; source: bought: CDI Laboratories (HuProt v2.0 microarray)) MGSRDHLFKVLVVGDAAVGKTSLVQRYSQDSFSKHYKSTVGVDFALKVLQWSDYEIVRLQLWDIAGQERFTSMTRLYYRDASACVIMFDVTNATTFSNSQRWKQDLDSKLTLPNGEPVPCLLLANKCDLSPWAVSRDQIDRFSKENGFTGWTETSVKENKNINEAMRVLIEKMMRNSTEDIMSLSTQGDYINLQTKSSSWSCC
binds | Myosin light chain 1/3, skeletal muscle isoform (natural protein, human, spotted on the HuProt array; also called MYL1; source: bought: CDI Laboratories (HuProt v2.0 microarray)) not shown
binds | Huntingtin-interacting protein K (natural protein, human, UniProt Q9NX55 1-121, looked up, human, spotted on the HuProt array; also called HYPK; source: bought: CDI Laboratories (HuProt v2.0 microarray)) MATEGDVELELETETSGPERPPEKPRKHDSGAADLERVTDYAEEKEIQSSNLETAMSVIGDRRSREQKAKQEREKELAKVTIKKEDLELIMTEMEISRAAAERSLREHMGNVVEALIALTN
binds | Centrin-3 (natural protein, human, UniProt O15182 1-167, looked up, human, spotted on the HuProt array; also called CETN3; source: bought: CDI Laboratories (HuProt v2.0 microarray)) MSLALRSELVVDKTKRKKRRELSEEQKQEIKDAFELFDTDKDEAIDYHELKVAMRALGFDVKKADVLKILKDYDREATGKITFEDFNEVVTDWILERDPHEEILKAFKLFDDDDSGKISLRNLRRVARELGENMSDEELRAMIEEFDKDGDGEINQEEFIAIMTGDI
binds | Short coiled-coil protein (natural protein, human, UniProt Q9UIL1 1-159, looked up, human, spotted on the HuProt array; also called SCOC; source: bought: CDI Laboratories (HuProt v2.0 microarray)) MRRRVFSSQDWRASGWDGMGFFSRRTFCGRSGRSCRGQLVQVSRPEVSAGSLLLPAPQAEDHSSRILYPRPKSLLPKMMNADMDAVDAENQVELEEKTRLINQVLELQHTLEDLSARVDAVKEENLKLKSENQVLGQYIENLMSASSVFQTTDTKSKRK
binds | Small proline-rich protein 2B (natural protein, human, UniProt P35325 1-72, looked up, human, spotted on the HuProt array; also called SPRR2B; source: bought: CDI Laboratories (HuProt v2.0 microarray)) MSYQQQQCKQPCQPPPVCPTPKCPEPCPPPKCPEPCPPPKCPQPCPPQQCQQKYPPVTPSPPCQPKYPPKSK
binds | Polyadenylate-binding protein-interacting protein 2 (natural protein, human, UniProt Q9BPZ3 1-127, looked up, human, spotted on the HuProt array; also called PAIP2; source: bought: CDI Laboratories (HuProt v2.0 microarray)) MKDPSRSSTSPSIINEDVIINGHSHEDDNPFAEYMWMENEEEFNRQIEEELWEEEFIERCFQEMLEEEEEHEWFIPARDLPQTMDQIQDQFNDLVISDGSSLEDLVVKSNLNPNAKEFVPGVKYGNI
binds | Uncharacterized protein C4orf36 (natural protein, human, UniProt Q96KX1 1-117, looked up, human, spotted on the HuProt array; source: bought: CDI Laboratories (HuProt v2.0 microarray)) MAYGVPRKNTVKTILRGSCYNVQEPWDIALLAKTWSTNLANIKLPFLEEISFGGSVQLTKCTTIKDGLLPSAESIKLEREYEVKRLCKLKCQENTSKEIQLLLRERPAGLRRPLPSK
binds | Protein N-terminal glutamine amidohydrolase (natural protein, human, spotted on the HuProt array; also called WDYHV1; source: bought: CDI Laboratories (HuProt v2.0 microarray)) not shown

Target: T2, TRPV4^WT N-terminal domain (IDR and ARD, amino acids 1-397) (human, UniProt Q9HBA0 1-397)
T2 construct: TRPV4, human, N-terminal domain (IDR and ARD), amino acids 1-397; also called TRPV4^WT N terminus; full N terminus; source: E. coli BL21(DE3), purified; not shown: His6, C-terminal, kept; V5, C-terminal, kept
Assay: as above
Conditions: both partners purified

binding result | Binder
binds | OTUB2 (on the HuProt array) (enzyme, human, UniProt Q96DC9 1-234, looked up, deubiquitinase OTUB2, human, spotted on the HuProt array; source: bought: CDI Laboratories (HuProt v2.0 microarray)) MSETSFNLISEKCDILSILRDHPENRIYRRKIEELSKRFTAIRKTKGDGNCFYRALGYSYLESLLGKSREIFKFKERVLQTPNDLLAAGFEEHKFRNFFNAFYSVVELVEKDGSVSSLLKVFNDQSASDHIVQFLRLLTSAFIRNRADFFRHFIDEEMDIKDFCTHEVEPMATECDHIQITALSQALSIALQVEYVDEMDTALNHHVFPEAATPSVYLLYKTSHYNILYAADKH
